{"source": "patent US20080193444A1", "molecules": {"B1": {"name": "MAB1998 (antibody, from another filing, V domains shown)", "VH": "QVQLKESGPGLVAPSQSLSITCTVSGFSLTNYGIHWVRQPPGKGLEWLGVIWARGFTNYNSALMSRLIITKDNSQSQVFLKMNSLQPDDSATYFCARANDGVYYAMDYWGQGTSVTVSS", "VL": "QFVLTQSPAFLSASPGEKVTMTCSANSSVNYIHWYQQKSGTSPKKWIYDTSKLASGVPVRFSGSGSGTSYSLTISSMETEDAATYYCQQWTTNPLTFGAGTRVELK"}}, "test_in_all_cases": "cell-based or functional assay", "key": {"β1 integrin (human)": {"target": "β1 integrin (human) (UniProt P05556)", "sequence (P05556 21-798)": "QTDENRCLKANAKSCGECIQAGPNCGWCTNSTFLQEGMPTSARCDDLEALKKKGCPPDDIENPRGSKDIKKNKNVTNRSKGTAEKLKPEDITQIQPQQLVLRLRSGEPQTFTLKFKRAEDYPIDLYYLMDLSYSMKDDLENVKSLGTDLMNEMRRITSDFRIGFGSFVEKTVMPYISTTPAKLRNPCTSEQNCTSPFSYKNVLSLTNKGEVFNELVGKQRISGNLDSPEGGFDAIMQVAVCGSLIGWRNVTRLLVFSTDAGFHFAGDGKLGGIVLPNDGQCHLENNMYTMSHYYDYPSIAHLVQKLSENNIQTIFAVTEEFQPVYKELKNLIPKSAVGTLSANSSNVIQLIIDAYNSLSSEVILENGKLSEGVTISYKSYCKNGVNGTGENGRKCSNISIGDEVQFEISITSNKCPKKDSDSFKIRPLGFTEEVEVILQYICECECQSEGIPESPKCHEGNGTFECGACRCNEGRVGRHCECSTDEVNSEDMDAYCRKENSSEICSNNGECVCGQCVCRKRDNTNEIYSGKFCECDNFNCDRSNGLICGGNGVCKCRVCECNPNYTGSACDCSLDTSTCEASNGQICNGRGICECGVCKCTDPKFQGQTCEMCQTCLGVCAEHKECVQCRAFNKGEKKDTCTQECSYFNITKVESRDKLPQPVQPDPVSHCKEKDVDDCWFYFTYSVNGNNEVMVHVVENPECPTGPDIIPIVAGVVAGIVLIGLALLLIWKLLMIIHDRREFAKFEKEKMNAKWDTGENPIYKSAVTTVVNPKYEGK"}, "α6 integrin (human)": {"target": "α6 integrin (human) (UniProt P23229)", "sequence (P23229 24-1130)": "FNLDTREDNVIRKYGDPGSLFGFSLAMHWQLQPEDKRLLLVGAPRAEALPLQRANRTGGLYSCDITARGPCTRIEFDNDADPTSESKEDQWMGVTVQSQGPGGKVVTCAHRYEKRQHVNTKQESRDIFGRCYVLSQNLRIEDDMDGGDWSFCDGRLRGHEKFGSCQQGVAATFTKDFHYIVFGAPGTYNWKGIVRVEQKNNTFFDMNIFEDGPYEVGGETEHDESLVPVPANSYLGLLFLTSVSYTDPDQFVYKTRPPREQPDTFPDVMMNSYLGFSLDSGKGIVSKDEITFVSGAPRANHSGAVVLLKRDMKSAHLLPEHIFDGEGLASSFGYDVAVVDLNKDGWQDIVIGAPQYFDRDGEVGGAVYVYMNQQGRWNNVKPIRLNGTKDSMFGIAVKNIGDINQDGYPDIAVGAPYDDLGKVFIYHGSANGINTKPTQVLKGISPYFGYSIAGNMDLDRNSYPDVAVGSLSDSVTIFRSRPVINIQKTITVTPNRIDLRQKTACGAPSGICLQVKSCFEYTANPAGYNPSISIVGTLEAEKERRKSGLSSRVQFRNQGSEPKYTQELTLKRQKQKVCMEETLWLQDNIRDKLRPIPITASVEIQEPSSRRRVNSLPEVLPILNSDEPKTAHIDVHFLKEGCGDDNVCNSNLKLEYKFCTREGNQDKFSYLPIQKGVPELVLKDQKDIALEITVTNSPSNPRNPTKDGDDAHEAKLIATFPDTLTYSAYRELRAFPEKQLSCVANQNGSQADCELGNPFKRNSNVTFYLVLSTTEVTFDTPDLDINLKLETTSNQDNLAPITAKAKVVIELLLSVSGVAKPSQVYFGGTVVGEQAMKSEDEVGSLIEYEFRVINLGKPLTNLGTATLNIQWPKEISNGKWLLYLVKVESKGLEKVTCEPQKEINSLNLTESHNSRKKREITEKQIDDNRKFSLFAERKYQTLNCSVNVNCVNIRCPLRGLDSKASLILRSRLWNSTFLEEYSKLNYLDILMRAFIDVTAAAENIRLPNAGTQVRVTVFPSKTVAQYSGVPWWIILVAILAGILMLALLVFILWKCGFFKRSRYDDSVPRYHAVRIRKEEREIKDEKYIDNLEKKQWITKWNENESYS"}, "α2 integrin (human)": {"target": "α2 integrin (human) (UniProt P17301)"}, "[1]": {"target": "αv integrin subunit (rat hippocampus) (rat)"}, "α9 integrin (human)": {"target": "α9 integrin (human) (UniProt Q13797)", "sequence (Q13797 30-1035)": "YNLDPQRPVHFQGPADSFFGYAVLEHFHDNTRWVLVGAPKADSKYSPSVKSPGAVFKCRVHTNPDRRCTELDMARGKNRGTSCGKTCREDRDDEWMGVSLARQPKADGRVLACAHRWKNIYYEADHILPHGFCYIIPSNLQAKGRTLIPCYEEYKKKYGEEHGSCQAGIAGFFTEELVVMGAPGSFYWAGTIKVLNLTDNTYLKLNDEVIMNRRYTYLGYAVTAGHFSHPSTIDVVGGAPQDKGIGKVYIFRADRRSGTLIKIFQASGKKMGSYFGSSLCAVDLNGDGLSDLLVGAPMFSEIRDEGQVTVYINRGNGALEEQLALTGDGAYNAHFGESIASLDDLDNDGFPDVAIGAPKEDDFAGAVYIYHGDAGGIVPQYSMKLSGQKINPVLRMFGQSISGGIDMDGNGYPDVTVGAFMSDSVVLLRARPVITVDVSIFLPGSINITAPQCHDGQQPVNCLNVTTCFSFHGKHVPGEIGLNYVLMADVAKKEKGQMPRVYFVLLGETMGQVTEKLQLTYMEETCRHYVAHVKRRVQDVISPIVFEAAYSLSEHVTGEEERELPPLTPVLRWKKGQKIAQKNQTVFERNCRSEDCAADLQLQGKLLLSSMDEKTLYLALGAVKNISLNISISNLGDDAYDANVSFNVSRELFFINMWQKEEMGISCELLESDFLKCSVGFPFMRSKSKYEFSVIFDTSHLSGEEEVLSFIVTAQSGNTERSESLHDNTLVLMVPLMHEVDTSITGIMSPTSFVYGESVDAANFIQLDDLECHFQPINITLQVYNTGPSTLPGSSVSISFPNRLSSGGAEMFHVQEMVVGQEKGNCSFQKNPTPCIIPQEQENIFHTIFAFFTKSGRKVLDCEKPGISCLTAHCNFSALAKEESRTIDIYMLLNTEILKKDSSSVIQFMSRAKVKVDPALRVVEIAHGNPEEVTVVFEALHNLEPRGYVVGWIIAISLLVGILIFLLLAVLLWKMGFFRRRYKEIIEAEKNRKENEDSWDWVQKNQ"}, "αvβ1 integrin (human)": {"target": "αvβ1 integrin (human) (UniProt P06756)"}, "α5 integrin (human)": {"target": "α5 integrin (human) (UniProt P08648)", "sequence (P08648 42-1049)": "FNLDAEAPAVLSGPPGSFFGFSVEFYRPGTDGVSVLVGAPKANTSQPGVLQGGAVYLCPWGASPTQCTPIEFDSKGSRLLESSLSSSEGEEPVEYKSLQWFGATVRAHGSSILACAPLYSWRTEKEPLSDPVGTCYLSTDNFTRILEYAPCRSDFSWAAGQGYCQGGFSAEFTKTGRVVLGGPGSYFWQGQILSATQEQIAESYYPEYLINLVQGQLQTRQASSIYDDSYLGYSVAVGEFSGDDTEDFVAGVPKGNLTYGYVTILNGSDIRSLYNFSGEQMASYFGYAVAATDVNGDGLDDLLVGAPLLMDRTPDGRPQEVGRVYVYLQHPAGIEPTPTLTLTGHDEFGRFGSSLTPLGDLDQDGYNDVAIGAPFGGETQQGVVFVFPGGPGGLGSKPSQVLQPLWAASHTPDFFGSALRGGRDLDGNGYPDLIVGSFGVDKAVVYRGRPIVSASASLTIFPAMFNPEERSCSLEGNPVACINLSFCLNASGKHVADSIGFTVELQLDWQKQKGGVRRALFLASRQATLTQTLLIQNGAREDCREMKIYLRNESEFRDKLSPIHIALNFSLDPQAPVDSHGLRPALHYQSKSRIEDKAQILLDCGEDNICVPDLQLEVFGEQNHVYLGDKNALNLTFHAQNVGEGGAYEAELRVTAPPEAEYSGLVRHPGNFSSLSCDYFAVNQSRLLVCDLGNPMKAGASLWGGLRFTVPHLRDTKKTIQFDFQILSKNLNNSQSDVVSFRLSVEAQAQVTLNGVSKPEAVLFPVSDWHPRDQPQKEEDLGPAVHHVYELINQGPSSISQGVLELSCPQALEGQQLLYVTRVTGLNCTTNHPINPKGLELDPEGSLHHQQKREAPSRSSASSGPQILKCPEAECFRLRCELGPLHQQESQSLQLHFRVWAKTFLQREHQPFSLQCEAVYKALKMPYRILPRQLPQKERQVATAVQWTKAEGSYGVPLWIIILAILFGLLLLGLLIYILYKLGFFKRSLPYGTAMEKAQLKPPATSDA"}, "α1 integrin (human)": {"target": "α1 integrin (human) (UniProt P56199)", "sequence (P56199 29-1179)": "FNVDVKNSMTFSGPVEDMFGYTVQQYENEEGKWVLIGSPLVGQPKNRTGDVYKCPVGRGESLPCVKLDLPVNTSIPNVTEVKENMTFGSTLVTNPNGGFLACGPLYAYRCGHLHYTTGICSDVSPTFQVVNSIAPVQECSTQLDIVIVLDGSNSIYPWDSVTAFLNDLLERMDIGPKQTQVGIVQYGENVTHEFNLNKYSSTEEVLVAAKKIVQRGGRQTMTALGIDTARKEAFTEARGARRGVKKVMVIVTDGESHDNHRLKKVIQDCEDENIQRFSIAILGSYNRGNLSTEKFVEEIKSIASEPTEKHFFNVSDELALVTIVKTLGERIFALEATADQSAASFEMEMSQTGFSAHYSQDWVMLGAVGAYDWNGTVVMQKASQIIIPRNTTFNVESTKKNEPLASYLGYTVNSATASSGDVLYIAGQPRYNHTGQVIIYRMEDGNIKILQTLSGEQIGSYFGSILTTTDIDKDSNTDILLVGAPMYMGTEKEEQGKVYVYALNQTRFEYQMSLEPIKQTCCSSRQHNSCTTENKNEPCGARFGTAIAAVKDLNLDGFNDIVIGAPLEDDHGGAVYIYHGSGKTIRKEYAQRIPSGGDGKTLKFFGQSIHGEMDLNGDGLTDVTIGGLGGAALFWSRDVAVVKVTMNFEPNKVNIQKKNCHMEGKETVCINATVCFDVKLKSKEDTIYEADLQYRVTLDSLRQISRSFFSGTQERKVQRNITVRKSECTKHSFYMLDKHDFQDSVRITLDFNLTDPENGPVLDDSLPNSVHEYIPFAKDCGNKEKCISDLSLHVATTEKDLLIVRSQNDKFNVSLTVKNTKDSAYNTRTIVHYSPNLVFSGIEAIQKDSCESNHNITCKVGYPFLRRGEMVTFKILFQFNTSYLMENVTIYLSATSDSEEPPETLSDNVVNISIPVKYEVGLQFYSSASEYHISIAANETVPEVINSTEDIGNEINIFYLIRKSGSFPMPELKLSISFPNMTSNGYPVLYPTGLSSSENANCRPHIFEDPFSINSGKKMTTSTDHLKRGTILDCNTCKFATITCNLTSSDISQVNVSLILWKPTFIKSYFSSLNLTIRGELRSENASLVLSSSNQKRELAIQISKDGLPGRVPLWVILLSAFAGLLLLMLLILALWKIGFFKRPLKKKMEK"}, "α2β1 integrin (human)": {"target": "α2β1 integrin (human) (UniProt P17301)"}}, "data": [{"molecule": "TS2/16 (activating) (antibody)", "values": [{"measurement": "Maximal inhibition of toxicity (%)", "setting": "β1 integrin (human)", "result": 0, "unit": "%"}]}, {"molecule": "GoH3 (antibody)", "values": [{"measurement": "Maximal inhibition of toxicity (%)", "setting": "α6 integrin (human)", "result": 40, "unit": "%"}]}, {"molecule": "Gi9 (antibody)", "values": [{"measurement": "Maximal inhibition of toxicity (%)", "setting": "α2 integrin (human)", "result": 100, "unit": "%"}]}, {"molecule": "echistatin (from UniProt P17347 131-179) (peptide)", "values": [{"measurement": "LTP in the presence of Aβ plus echistatin, dentate gyrus in vitro (% baseline)", "setting": "[1]", "result": 143, "unit": "%"}]}, {"molecule": "Y9A2 (antibody)", "values": [{"measurement": "Maximal inhibition of toxicity (%)", "setting": "α9 integrin (human)", "result": 0, "unit": "%"}]}, {"molecule": "17E6 (antibody)", "values": [{"measurement": "LTP in the presence of Aβ plus antibody, CA1 in vivo (% baseline)", "setting": "[1]", "result": 135, "unit": "%"}, {"measurement": "LTP in the presence of Aβ plus antibody, dentate gyrus in vitro (% baseline)", "setting": "[1]", "result": 153, "unit": "%"}]}, {"molecule": "Superfibronectin (ligand)", "values": [{"measurement": "LTP in the presence of Aβ plus superfibronectin, dentate gyrus in vitro (% baseline)", "setting": "[1]", "result": 147, "unit": "%"}, {"measurement": "Maximal inhibition of toxicity (%)", "setting": "αvβ1 integrin (human)", "result": 100, "unit": "%"}]}, {"molecule": "P1D6 (antibody)", "values": [{"measurement": "Maximal inhibition of toxicity (%)", "setting": "α5 integrin (human)", "result": 5, "unit": "%"}]}, {"molecule": "AIIB2 (antibody)", "values": [{"measurement": "Maximal inhibition of toxicity (%)", "setting": "β1 integrin (human)", "result": 100, "unit": "%"}]}, {"molecule": "SAM1 (antibody)", "values": [{"measurement": "Maximal inhibition of toxicity (%)", "setting": "α5 integrin (human)", "result": 5, "unit": "%"}]}, {"molecule": "TS2/7 (antibody)", "values": [{"measurement": "Maximal inhibition of toxicity (%)", "setting": "α1 integrin (human)", "result": 5, "unit": "%"}]}, {"molecule": "Laminin (ligand)", "values": [{"measurement": "Maximal inhibition of toxicity (%)", "setting": "α2β1 integrin (human)", "result": 20, "unit": "%"}]}, {"molecule": "B1", "values": [{"measurement": "Maximal inhibition of toxicity (%)", "setting": "α2 integrin (human)", "result": 25, "unit": "%"}]}]}
